Laboratory results from paper PMC4004224 (Journal of the American Chemical Society, 2014).

Target: T1, recombinant human Rnase inhibitor (human, UniProt P13489 1-461)
T1 sequence (looked up): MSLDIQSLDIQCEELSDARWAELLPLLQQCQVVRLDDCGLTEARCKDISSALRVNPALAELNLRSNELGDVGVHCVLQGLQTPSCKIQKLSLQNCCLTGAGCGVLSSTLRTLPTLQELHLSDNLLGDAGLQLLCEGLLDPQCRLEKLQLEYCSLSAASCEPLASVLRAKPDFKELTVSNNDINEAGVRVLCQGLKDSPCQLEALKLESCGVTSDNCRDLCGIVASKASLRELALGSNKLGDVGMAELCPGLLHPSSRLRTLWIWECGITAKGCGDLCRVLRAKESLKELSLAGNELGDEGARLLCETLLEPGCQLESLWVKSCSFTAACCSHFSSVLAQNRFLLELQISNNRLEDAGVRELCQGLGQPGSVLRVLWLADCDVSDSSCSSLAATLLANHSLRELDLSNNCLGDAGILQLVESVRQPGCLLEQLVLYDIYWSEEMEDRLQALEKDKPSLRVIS

binding result: binds
B1: pyronin-conjugated bovine Rnase A (enzyme, UniProt P61823 27-150, looked up)
chain: KETAAAKFERQHMDSSTSAASSSNYCNQMMKSRNLTKDRCKPVNTFVHESLADVQAVCSQKNVACKNGQTNCYQSYSTMSITDCRETGSSKYPNCAYKTTQANKHIIVACEGNPYVPVHFDASV
modifications: lysines conjugated to the fluorinated pyronin from bromopyronin 5; 0.3-0.6 fluorophores per protein
